According to patent US20040234530:

Target: C1-esterase inhibitor (human plasma protease C1 inhibitor), purified or in human serum (UniProt P05155)
Sequence (P05155 23-500): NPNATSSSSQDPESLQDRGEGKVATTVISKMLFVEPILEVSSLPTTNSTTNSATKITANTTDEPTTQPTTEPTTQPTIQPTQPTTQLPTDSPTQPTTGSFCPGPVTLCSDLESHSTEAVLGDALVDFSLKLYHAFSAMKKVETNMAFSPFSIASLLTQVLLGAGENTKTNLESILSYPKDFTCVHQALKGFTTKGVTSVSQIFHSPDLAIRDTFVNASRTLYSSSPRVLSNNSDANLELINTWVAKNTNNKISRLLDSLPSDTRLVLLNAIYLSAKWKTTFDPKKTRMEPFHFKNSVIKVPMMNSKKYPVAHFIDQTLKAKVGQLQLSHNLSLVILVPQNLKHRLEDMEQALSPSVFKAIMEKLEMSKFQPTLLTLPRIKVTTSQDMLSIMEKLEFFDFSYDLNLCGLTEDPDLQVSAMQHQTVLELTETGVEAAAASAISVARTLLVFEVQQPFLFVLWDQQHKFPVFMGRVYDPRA

Substance | cleavage of C1-INH (immunoblot) | kallikrein activity (cleavage of chromogenic substrate S-2302)
StcE E435D-His (from pTEG1 in BL21(DE3), strain WAM2726) | While StcE-His is able to degrade C1-INH, we observed no such cleavage with the mutant protein | –
purified kallikrein (Calbiochem) | – | ranging from 88.8% (±2.6% SEM) to 10.3% (±1.3% SEM) activity
